To fix the notation:
B1: L88AL92A: mutated TriA (SEQ ID NO: 2) in which position 88 is Ala and position 92 is Ala (protein)
chain: MQTLSIQHGTLVTMDQYRRVLGDSWVHVQDGRIVALGVHAESVPPPADRVIDARGKVVLPGFINAHTHVNQILLRGGPSHGRQLYDWAFNVAYPGQKAMRPEDVAVAVRLYCAEAVRSGITTINDNADSAIYPGNIEAAMAVYGEVGVRVVYARMFFDRMDGRIQGYVDALKARSPQVELCSIMEETAVAKDRITALSDQYHGTAGGRISVWPAPAITPAVTVEGMRWAQAFARDRAVMWTLHMAESDHDERLHWMSPAEYMECYGLLDERLQVAHCVYFDRKDVRLLHRHNVKVASQVVSNAYLGSGVAPVPEMVERGMAVGIGTDDGNCNDSVNMIGDMKFMAHIHRAVHRDADVLTPEKILEMATIDGARSLGMDHEIGSIETGKRADLILLDLRHPQTTPHHHLAATIVFQAYGNEVDTVLIDGNVVMENRRLSFLPPERELAFLEEAQSRATAILQRANMVANPAWRSL
modifications: Pseudomonas
B2: D128I: mutated TriA (SEQ ID NO: 2) in which position 128 is Ile (protein)
chain: B1 chain with A88L, A92L, D128I
modifications: Pseudomonas
B3: N70A: mutated TriA (SEQ ID NO: 2) in which position 70 is Ala (protein)
chain: B1 chain with N70A, A88L, A92L
modifications: Pseudomonas
B4: L92V: mutated TriA (SEQ ID NO: 2) in which position 92 is Val (protein)
chain: B1 chain with A88L, A92V
modifications: Pseudomonas
B5: N70N: TriA (melamine deaminase, SEQ ID NO: 2) with position 70 unchanged, apparently the wildtype reference (protein)
chain: B1 chain with A88L, A92L
modifications: Pseudomonas
B6: M155V: mutated TriA (SEQ ID NO: 2) in which position 155 is Val (protein)
chain: B1 chain with A88L, A92L, M155V
modifications: Pseudomonas

Numbering of substitutions follows the chain as printed. Names and notes keep the numbering of the source.

This experiment relates to Soybean cv Jake. As to the kind of experiment: Herbicide tolerance test of transgenic soybean events, roots of cuttings treated via nutrient solution with the herbicide. The following applies: transgenic plants expressing the TriA variant, herbicide treatment; 0% no injury, 100% complete death; herbicide and species not given. Type of experiment: in vivo. How it is done:
Binary vectors are generated as described in EXAMPLE 9. Soybean cv Jake are transformed as previously described by Siminszky et al., Phytochem Rev. 5:445-458 (2006). After regeneration, transformants are transplanted to soil in small pots, placed in growth chambers (16 hr day/8 hr night; 25° C. day/23° C. night; 65% relative humidity; 130-150 microE m-2 s-1) and subsequently tested for the presence of the T-DNA via Taqman analysis. After a few weeks, healthy, transgenic positive, single copy events are transplanted to larger pots and allowed to grow in the growth chamber. An optimal shoot for cutting is about 3-4 inches tall, with at least two nodes present. Each cutting is taken from the original transformant (mother plant) and dipped into rooting hormone powder (indole-3-butyric acid, IBA). The cutting is then placed in oasis wedges inside a bio-dome. The mother plant is taken to maturity in the greenhouse and harvested for seed. Wild type cuttings are also taken simultaneously to serve as negative controls. The cuttings are kept in the bio-dome for 5-7 days. 7-10 days after transfer to oasis wedges, the roots are treated via nutrient solution with the herbicide. Typical phytotox symptoms, like club shaped root, are evaluated 3-4 days after treatment. Less or no injury of transgenic plants compared to wildtype plants are interpreted as herbicide tolerance.
Turning to B1, the “Root injury [%]” value is reported as 0%.
As for B2, the figure is 0%; as for B3, 0%; as for B4, 50%.
As for B5, the figure is 80%; as for B6, 10%.

Values taken from patent publication US10538782B2, “Plants having increased tolerance to herbicides” (BASF SE, priority 2015, dated 2020).
